Paper PMC8095197 (bioRxiv, 2021)

Target: SARS-CoV-2 spike (SARS-CoV-2, reference (Wuhan-Hu-1) …, UniProt P0DTC2)
Experiment: ELISA

B1: DH1047 IgG (antibody, V domains shown)
VH: QVQLVQSGAEVKKPGASVQVSCQASANTFTNHYIHWVRQAPGQGLEWMGIIYPTGGNTIYAQGFQGRVTMTRDTSLNTIYLELSSLRSEDTAVYYCARDVRVDDSWSGYDLLSGGTYFDYWGQGTLVTVSS
VL: not shown
binding result: binds
